{"source": "paper PMC3295763", "about": "(PLoS ONE, 2012)"}
{"target": "S-layer protein EA1 (Bacillus anthracis Sterne, UniProt P94217)", "assay": "SPR; […] (5 µg/ml in 10 mM sodium acetate pH 4.0); […], dissociation 10 min; […]", "conditions": "both partners purified", "units": {"Kd": "nM", "koff": "s⁻¹", "kon": "M⁻¹ s⁻¹"}}
{"binder": "sdAb C7 (VHH, source: E. coli Rosetta, periplasmic (pECAN45), purified (IMAC, Superdex 75)) VHH: EVQLQASGGGLVQPGGSLNLSCAASGEILSFNSMGWYRQAPGKQCELVAVILSGFSPNYADSVKGRFTISRDGAKNTVFLRMNRLKPEDTADYYCAARFYGAIRDEQSVNYWGQGTRVTVSS", "Kd": 1.57, "koff": 0.000248, "kon": 158000}
{"binder": "sdAb B2 (VHH, source: E. coli Rosetta, periplasmic (pECAN45), purified (IMAC, Superdex 75)) VHH: EVQLQASGGGLVQAGGSLRLSCAASGHINIHYAMGWFRRAPGKEREFVAAVTWSGASTYYADSVKGRFTISRDNGGNTMFLQLDSLKPEDTATYYCAAQGALGRLTSASGYDYWGQGTQVTVSS", "Kd": 6.17, "koff": 0.00037, "kon": 60000}
{"binder": "sdAb B12 (VHH, source: E. coli Rosetta, periplasmic (pECAN45), purified (IMAC, Superdex 75)) VHH: DVQLQASGGGLAQPGGSLRLSCVASGSVSRLSRMGWYRQAPGKQRELVAYIWHDGDNSYMDSVKGRFTISRDNARDTAYLQMNSLKPEDTAVYYCNYYRVGSGDSWGQGIQVIVSS", "Kd": 6.18, "koff": 0.0015, "kon": 242000}
{"binder": "sdAb A1 (VHH, source: E. coli Rosetta, periplasmic (pECAN45), purified (IMAC, Superdex 75)) VHH: DVQLQASGGGLVQAGGSLELSCVVVGESIIDYQMAWFRQMVGREREFVAAITGDSHYSDYSASASGRFTISRDNAKKTVSLQMNHLKPEDTALYYCAARKGFGINRLSTAFDYWGHGTQVTVSS", "Kd": 0.305, "koff": 0.000233, "kon": 766000}
{"binder": "sdAb G10 (VHH, source: E. coli Rosetta, periplasmic (pECAN45), purified (IMAC, Superdex 75)) VHH: DVQLQASGGGLVQPGGSLKLSCVASGSTFSPDMMRWYRQAPGKQRDLVAWISTSGFTMYADSVKGRFTISRDNAKNTVYLQMNSLKPEDAAVYYCNANRFSGPDYWGQGMQVSVSS", "Kd": 2.04, "koff": 0.000166, "kon": 81100}
